Test results as given in patent publication US20180148504A1 (EISAI R AND D MANAGEMENT, published 2018).

Legend:
[1] = molecular target: T1, recombinant purified FRα (ECL assay calibrator) (human, UniProt P15328 25-234); assay: ECL sandwich on FRα, signal to background; capture 26A9.C4; binder = detection Ab
T1 construct: Calibrator of the ECL sandwich assays; also called FRα calibrator; FRα standard

[2] = molecular target: T1, recombinant purified FRα (ECL assay …); assay: ECL sandwich, FRα calibrator; capture 6A2.G7; binder = detection Ab
[3] = molecular target: T1, recombinant purified FRα (ECL assay …); assay: ECL sandwich, FRα calibrator; capture 5C12.H8; binder = detection Ab
[4] = molecular target: T1, recombinant purified FRα (ECL assay …); assay: ECL sandwich, FRα calibrator; capture 24H8.D3; binder = detection Ab
[5] = molecular target: T1, recombinant purified FRα (ECL assay …); assay: ECL sandwich on FRα, signal to background; capture 1D2.G8.G10; binder = detection Ab
[6] = molecular target: T1, recombinant purified FRα (ECL assay …); assay: ECL sandwich, FRα calibrator; capture 30G6.G6.G4.E9; binder = detection Ab
[7] = molecular target: T1, recombinant purified FRα (ECL assay …); assay: ECL sandwich, FRα calibrator; capture 1D2.G8.G10; binder = detection Ab
[8] = molecular target: T1, recombinant purified FRα (ECL assay …); assay: ECL sandwich, FRα calibrator; capture 2F11.F8; binder = detection Ab
[9] = molecular target: T1, recombinant purified FRα (ECL assay …); assay: ECL sandwich on FRα, signal to background; capture 1A8.G11.E7; binder = detection Ab
[10] = molecular target: T1, recombinant purified FRα (ECL assay …); assay: ECL sandwich on FRα, signal to background; capture 6A2.G7; binder = detection Ab
[11] = molecular target: T1, recombinant purified FRα (ECL assay …); assay: ECL sandwich, FRα calibrator; capture 26A9.C4; binder = detection Ab
[12] = molecular target: T1, recombinant purified FRα (ECL assay …); assay: ECL sandwich on FRα, signal to background; capture 28H12.G9; binder = detection Ab
[13] = molecular target: T1, recombinant purified FRα (ECL assay …); assay: ECL sandwich, FRα calibrator; capture 24H8.F3; binder = detection Ab
[14] = molecular target: T1, recombinant purified FRα (ECL assay …); assay: ECL sandwich on FRα, signal to background; capture 2F11.F8; binder = detection Ab
[15] = molecular target: T1, recombinant purified FRα (ECL assay …); assay: ECL sandwich, FRα calibrator; capture 1C6.E12.G8; binder = detection Ab
[16] = molecular target: T1, recombinant purified FRα (ECL assay …); assay: ECL sandwich, FRα calibrator; capture 19D2.G9; binder = detection Ab
[17] = molecular target: T2, human folate receptor gamma (FRγ), recombinant, C-terminal 6xHis (human, UniProt P41439 23-245, limits assumed); assay: direct ELISA, plates coated with 1 µg/mL FR isoform, dilution series of culture supernatant
T2 construct: Transiently expressed in 293F cells and purified; coated on ELISA plates
T2 sequence (P41439 other isoform, or with tags, fused parts or gaps limits assumed): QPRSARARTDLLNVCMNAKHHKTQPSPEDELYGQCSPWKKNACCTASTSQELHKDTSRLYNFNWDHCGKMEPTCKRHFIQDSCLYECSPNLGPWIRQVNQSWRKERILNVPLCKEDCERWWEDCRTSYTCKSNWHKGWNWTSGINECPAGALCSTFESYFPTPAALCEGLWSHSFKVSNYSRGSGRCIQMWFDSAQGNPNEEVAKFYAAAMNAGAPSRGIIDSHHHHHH

[18] = molecular target: T3, human folate receptor beta (FRβ), recombinant, C-terminal 6xHis (human, UniProt P14207 17-230, limits assumed); assay: as above
T3 construct: Transiently expressed in 293F cells and purified; coated on ELISA plates
T3 sequence (P14207 other isoform, or with tags, fused parts or gaps limits assumed): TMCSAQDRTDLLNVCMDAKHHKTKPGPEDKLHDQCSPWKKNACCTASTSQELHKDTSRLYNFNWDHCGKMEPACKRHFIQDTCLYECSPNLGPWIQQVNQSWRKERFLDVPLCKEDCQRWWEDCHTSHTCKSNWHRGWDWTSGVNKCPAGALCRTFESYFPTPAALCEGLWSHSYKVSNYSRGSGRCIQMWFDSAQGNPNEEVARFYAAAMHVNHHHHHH

[19] = molecular target: T1, recombinant purified FRα (ECL assay …); assay: ECL sandwich on FRα, signal to background; capture 19D4.B7; binder = detection Ab
[20] = molecular target: T1, recombinant purified FRα (ECL assay …); assay: ECL sandwich on FRα, signal to background; capture 19D2.G9; binder = detection Ab
[21] = molecular target: T1, recombinant purified FRα (ECL assay …); assay: ECL sandwich, FRα calibrator; capture 28H12.G9; binder = detection Ab
[22] = molecular target: T1, recombinant purified FRα (ECL assay …); assay: ECL sandwich on FRα, signal to background; capture 24H8.D3; binder = detection Ab
[23] = molecular target: T1, recombinant purified FRα (ECL assay …); assay: ECL sandwich on FRα, signal to background; capture 1C6.E12.G8; binder = detection Ab
[24] = molecular target: T1, recombinant purified FRα (ECL assay …); assay: ECL sandwich on FRα, signal to background; capture 30G6.G6.G4.E9; binder = detection Ab
[25] = molecular target: T1, recombinant purified FRα (ECL assay …); assay: ECL sandwich, FRα calibrator; capture 19D4.B7; binder = detection Ab
[26] = molecular target: T1, recombinant purified FRα (ECL assay …); assay: ECL sandwich, FRα calibrator; capture 1A8.G11.E7; binder = detection Ab
[27] = molecular target: T1, recombinant purified FRα (ECL assay …); assay: ECL sandwich on FRα, signal to background; capture 24H8.F3; binder = detection Ab
[28] = molecular target: T1, recombinant purified FRα (ECL assay …); assay: ECL sandwich on FRα, signal to background; capture 5C12.H8; binder = detection Ab
[29] = molecular target: T4, recombinant human folate receptor alpha (rhFRα) (human, UniProt P15328 25-234); assay: BIAcore (SPR), format not described
T4 construct: CHO: Ig kappa leader, C-terminal 6xHis replacing the GPI attachment site; also called FOLR1; FOLR-1
T4 sequence (P15328 25-234 limits assumed): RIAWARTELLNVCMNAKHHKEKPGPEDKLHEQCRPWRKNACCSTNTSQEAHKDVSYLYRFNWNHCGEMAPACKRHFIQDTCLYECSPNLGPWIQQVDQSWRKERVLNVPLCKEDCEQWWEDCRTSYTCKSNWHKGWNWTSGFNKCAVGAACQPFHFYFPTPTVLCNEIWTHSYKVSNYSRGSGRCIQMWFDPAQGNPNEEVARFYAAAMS

T1 sequence (P15328 25-234 limits assumed): as above

B1: Monoclonal antibody 6A2.G7 (antibody, mouse IgG1, V domains shown)
VH: GADLVKPGASVKMSCKASGYTFSRYNMHWVKQTPGQGLEWIGTIYPGNGDTSYNEKFKGKATLTADKSSSIVYMQVSSLTSEASAVYYCARDYGSRYALDYWGQGTSVTVSS
VL: SSLSASLGDRVTISCRASQDISNYLNWYQQKPDGTVKLLIYYTSRLHSGVPSRFSGSGSGTDYSLTISNLEQEDIATYFCQQGNTLPYTFGGGTKLEIK
notes: Murine IgG1 kappa from hybridoma; also called ATCC PTA-123093
Average of S/B [1]: 4 | Specific signal at 500 pg/mL [2]: 92 | Specific signal at 500 pg/mL [3]: 100 | Specific signal at 500 pg/mL [4]: 6620 | Average of S/B [5]: 5 | Specific signal at 500 pg/mL [6]: 2410 | Specific signal at 500 pg/mL [7]: 347 | Specific signal at 500 pg/mL [8]: 283 | Average of S/B [9]: 89 | Average of S/B [10]: 1 | Specific signal at 500 pg/mL [11]: 347 | Average of S/B [12]: 7 | Specific signal at 500 pg/mL [13]: 3890 | Average of S/B [14]: 5 | Specific signal at 500 pg/mL [15]: 217 | Specific signal at 500 pg/mL [16]: 11700 | binding result [17]: no binding | binding result [18]: no binding | Average of S/B [19]: 145 | Average of S/B [20]: 205 | Specific signal at 500 pg/mL [21]: 432 | Average of S/B [22]: 109 | Average of S/B [23]: 3 | Average of S/B [24]: 31 | Specific signal at 500 pg/mL [25]: 10800 | Specific signal at 500 pg/mL [26]: 6000 | Average of S/B [27]: 63 | Average of S/B [28]: 1 | Kd [29]: 15 nM
